Positions of bridges follow the written chain, without caps; N, C: chain ends. Non-standard residues stand in square brackets, D forms with d. d2Nal = N[C@H](Cc1ccc2ccccc2c1)C(=O)O; Nle = CCCC[C@H](N)C(=O)O
Tests used:
LPS model of cachexia = details: Sutton et al., Peptides 29 (1): 104-111 (2008); cited from earlier work
[1] = tested on: urethane-anesthetized rats; assay: Cardiovascular effects (MAP, heart rate, ECG) in urethane-anesthetized rats; details: 200 nmol
Procedure: These studies were performed in urethane-anesthetized rats, since anesthesia is required for six-lead ECG monitoring. […] Initial selection of doses was guided by FDA exploratory IND studies with a recommendation for at least a 100-fold excess of the human dose.

For “Ac-NLe-c[Asp-Pro-DNal(2′)-Arg-Trp-Lys]-Pro-Val-NH2 (Ac-[Nle]DP[d2Nal]RWKPV-NH2; lactam 2-7) [PG-932]”, the peripheral activity (LPS model of cachexia) is listed as “active peripherally”, the “Duration” value [1] is listed as 4 ± 3 min and the “Peak Heart Rate Response (BPM)” value [1] is listed as 13 ± 09 BPM. For the same substance, the “Peak MAP Response (Δ mm Hg)” value [1] was 5 ± 3 mm Hg.

— patent US20260098072A1, “METHODS OF STIMULATING APPETITE AND/OR INCREASING BODY WEIGHT USING NON-NATURALLY OCCURRING MELANOCORTIN RECEPTOR ANTAGONIST ANALOGS” (Endevica Bio, Inc., priority 2022, published 2026)
